No end group written: not given here.
Molecular target: T1, 6×His标签 (组氨酸标签) (also: coupled to ovalbumin carrier, site not given here)
T1 construct: also called 多组氨酸标签; hexa组氨酸标签
T1 peptide: HHHHHH
Experiment: indirect phage-ELISA of phage-displayed clones after three rounds of solid-phase panning on 6×His-OVA

B1: 针对His标签的单域重链抗体 (特异性识别组氨酸标签的纳米抗体) (VHH)
VHH: QVQLVESGGGLVQPGQSLRLSCSAPGFTFNNFGLAWFRQAPGKEREEVACIRSHGVRTHYGASVEGRFTISRDSDNKALWLQMNDLKPEDSAVYYCAADPVPANFDTCVHNGYDYWGLGTQVTVSS
notes: also called 抗His标签单域重链抗体
Does B1 bind?
Result: binds

Reference: patent CN106146656A (UNIV BEIJING, dated 2016)
